In PMC10614612, “Identification of a carbonic anhydrase–Rubisco complex within the alpha-carboxysome” (Proceedings of the National Academy of Sciences of the …, 2023):

Molecular target: T1, biotinylated Rubisco (H. neapolitanus CbbL8S8) (H. neapolitanus, UniProt O85040 1-473; P45686 1-110, biotin (sites and subunit not stated))
T1 construct: Rubisco large subunit CbbL, H. neapolitanus, alpha-carboxysomal Form IA; Rubisco small subunit CbbS, H. neapolitanus; Held on streptavidin sensors; how it was biotinylated is in the SI Appendix methods; source: E. coli, coexpressed with GroEL/ES, purified (Strep-tag purification), biotinylated; copies: 8 + 8
Assay: BLI; biotinylated Rubisco immobilised on streptavidin biosensors; 62.5–2.0 nM CsoSCA-MBP as prey; 25 mM Tris pH 7.5, 125 mM NaCl, 0.01% Triton X100; 1:1 binding model; triplicate
Conditions: both partners purified

Kd: 1.2 ± 0.1 nM
B1: CsoSCA-MBP (enzyme, H. neapolitanus, UniProt O85042 1-514, looked up)
chain: MNTRNTRSKQRAPFGVSSSVKPRLDLIEQAPNPAYDRHPACITLPERTCRHPLTDLEANEQLGRCEDSVKNRFDRVIPFLQVVAGIPLGLDYVTRVQELAQSSLGHTLPEELLKDNWISGHNLKGIFGYATAKALTAATEQFSRKIMSEKDDSASAIGFFLDCGFHAVDISPCADGRLKGLLPYILRLPLTAFTYRKAYAGSMFDIEDDLAQWEKNELRRYREGVPNTADQPTRYLKIAVYHFSTSDPTHSGCAAHGSNDRAALEAALTQLMKFREAVENAHCCGASIDILLIGVDTDTDAIRVHIPDSKGFLNPYRYVDNTVTYAQTLHLAPDEARVIIHEAILNANRSDGWAKGNGVASEGMRRFIGQLLINNLSQIDYVVNRHGGRYPPNDIGHAERYISVGDGFDEVQIRNLAYYAHLDTVEENAIDVDVGIKIFTKLNLSRGLPIPIAIHYRYDPNVPGSRERTVVKARRIYNAIKERFSSLDEQNLLQFRLSVQAQDIGSPIEEVASA
notes: CsoSCA, beta-carbonic anhydrase of the alpha-carboxysome, H. neapolitanus; also called CsoSCA-MBP-his; C-terminal MBP tagged CsoSCA; source: E. coli, purified (His-tag purification, size exclusion chromatography); not shown: MBP, C-terminal, kept
